# Source: patent US20210388087A1 (Chugai, published 2021)
# Positions count from the first letter of the chain named. In names and notes the source's numbering stands.
# B1: H183/L072 VL P56E (antibody, name in Kabat numbering, V domains shown)
# VH: QVQLVESGGGLVQPGRSLRLSCAASGFTFSNAWMHWVRQAPGKGLEWVAQIKDKGNAYAAYYAPSVKGRFTISRDDSKNSIYLQMNSLKTEDTAVYYCHYVHYASASTVLPAFGVDAWGQGTTVTVSS
# VL: DIVMTQSPLSLPVTPGEPASISCQASQELVHMNRNTYLHWYQQKPGQAPRLLIYKVSNRFEGVPDRFSGSGSGTDFTLKISRVEAEDVGVYYCAQGTSVPFTFGQGTKLEIK
# B2: H183/L072 VL P95Q (antibody, name in Kabat numbering, V domains shown)
# VH: B1 VH
# VL: B1 VL with E61P, P100Q
# B3: H183/L072 VL P56G (antibody, name in Kabat numbering, V domains shown)
# VH: B1 VH
# VL: B1 VL with E61G
# B4: H183/L072 VL P56H (antibody, name in Kabat numbering, V domains shown)
# VH: B1 VH
# VL: B1 VL with E61H
# B5: H183/L072 VL P56R (antibody, name in Kabat numbering, V domains shown)
# VH: B1 VH
# VL: B1 VL with E61R
# B6: H183/L072 VL P56V (antibody, name in Kabat numbering, V domains shown)
# VH: B1 VH
# VL: B1 VL with E61V
# B7: H183/L072 VL P95H (antibody, name in Kabat numbering, V domains shown)
# VH: B1 VH
# VL: B1 VL with E61P, P100H
# B8: H183/L072 VL Q24F (antibody, name in Kabat numbering, V domains shown)
# VH: B1 VH
# VL: B1 VL with Q24F, E61P
# B9: H183/L072 VL P56L (antibody, name in Kabat numbering, V domains shown)
# VH: B1 VH
# VL: B1 VL with E61L
# B10: H183/L072 VL P56Q (antibody, name in Kabat numbering, V domains shown)
# VH: B1 VH
# VL: B1 VL with E61Q
# B11: H183/L072 VL P95E (antibody, name in Kabat numbering, V domains shown)
# VH: B1 VH
# VL: B1 VL with E61P, P100E
# B12: H183/L072 VL P95D (antibody, name in Kabat numbering, V domains shown)
# VH: B1 VH
# VL: B1 VL with E61P, P100D
# B13: H183/L072 VL P95T (antibody, name in Kabat numbering, V domains shown)
# VH: B1 VH
# VL: B1 VL with E61P, P100T
# B14: H183/L072 VL Q24D (antibody, name in Kabat numbering, V domains shown)
# VH: B1 VH
# VL: B1 VL with Q24D, E61P
# B15: H183/L072 VL P95K (antibody, name in Kabat numbering, V domains shown)
# VH: B1 VH
# VL: B1 VL with E61P, P100K
# B16: H183/L072 VL P56F (antibody, name in Kabat numbering, V domains shown)
# VH: B1 VH
# VL: B1 VL with E61F
# B17: H183/L072 VL Q24E (antibody, name in Kabat numbering, V domains shown)
# VH: B1 VH
# VL: B1 VL with Q24E, E61P
# B18: H183/L072 VL Q24L (antibody, name in Kabat numbering, V domains shown)
# VH: B1 VH
# VL: B1 VL with Q24L, E61P
# B19: H183/L072 VL P56K (antibody, name in Kabat numbering, V domains shown)
# VH: B1 VH
# VL: B1 VL with E61K
# B20: H183/L072 VL Q24H (antibody, name in Kabat numbering, V domains shown)
# VH: B1 VH
# VL: B1 VL with Q24H, E61P
# B21: H183/L072 VL Q24I (antibody, name in Kabat numbering, V domains shown)
# VH: B1 VH
# VL: B1 VL with Q24I, E61P
# B22: H183/L072 VL P56T (antibody, name in Kabat numbering, V domains shown)
# VH: B1 VH
# VL: B1 VL with E61T
# B23: H183/L072 VL P56I (antibody, name in Kabat numbering, V domains shown)
# VH: B1 VH
# VL: B1 VL with E61I
# B24: H183/L072 VL Q24K (antibody, name in Kabat numbering, V domains shown)
# VH: B1 VH
# VL: B1 VL with Q24K, E61P
# B25: H183/L072 VL P56N (antibody, name in Kabat numbering, V domains shown)
# VH: B1 VH
# VL: B1 VL with E61N
# B26: H183/L072 VL Q24G (antibody, name in Kabat numbering, V domains shown)
# VH: B1 VH
# VL: B1 VL with Q24G, E61P
# B27: H183/L072 VL P56W (antibody, name in Kabat numbering, V domains shown)
# VH: B1 VH
# VL: B1 VL with E61W
# B28: H183/L072 VL P95S (antibody, name in Kabat numbering, V domains shown)
# VH: B1 VH
# VL: B1 VL with E61P, P100S
# B29: H183/L072 VL P56M (antibody, name in Kabat numbering, V domains shown)
# VH: B1 VH
# VL: B1 VL with E61M
# B30: H183/L072 VL P56S (antibody, name in Kabat numbering, V domains shown)
# VH: B1 VH
# VL: B1 VL with E61S
# B31: H183/L072 VL Q24A (antibody, name in Kabat numbering, V domains shown)
# VH: B1 VH
# VL: B1 VL with Q24A, E61P
# Molecular target: T1, Human CD3eg linker (human)
# T1 construct: Single-chain construct; also called recombinant human CD3
# T1 chain: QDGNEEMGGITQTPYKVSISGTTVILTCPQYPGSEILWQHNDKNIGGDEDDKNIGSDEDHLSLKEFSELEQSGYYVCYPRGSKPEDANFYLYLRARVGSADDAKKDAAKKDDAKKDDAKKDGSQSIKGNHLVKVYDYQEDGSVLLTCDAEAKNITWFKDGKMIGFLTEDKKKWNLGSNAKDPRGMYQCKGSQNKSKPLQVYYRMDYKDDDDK
# Assay: SPR; fold vs parent H183/L072
row,Binder,fold change of affinity [fold]
1,B1,3.4
2,B2,0
3,B3,3.7
4,B4,2.9
5,B5,5.5
6,B6,3.4
7,B7,0
8,B8,0.9
9,B9,3.1
10,B10,3.7
11,B11,0
12,B12,0
13,B13,0
14,B14,1.2
15,B15,0
16,B16,3.3

row,Binder,fold change of affinity [fold]
1,B17,0
2,B18,1.2
3,B19,5.6
4,B20,1.1
5,B21,1.2
6,B22,3.9
7,B23,3.1
8,B24,1
9,B25,3.3
10,B26,1.2
11,B27,3
12,B28,0
13,B29,3.9
14,B30,4.1
15,B31,1.1
